Target: Jak2 (UniProt O60674)
Assay: phosphorylation enrichment, bacterial display (enrichment ratio); higher = better substrate or ligand; peptides without Tyr show the background
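Also: 11-residue human phosphosite peptides and single-mutation variants displayed on the E. coli surface, counted by deep sequencing, each peptide's frequency after selection divided by its frequency in the unselected input library; frequency after pTyr selection over input frequency; kinase dosed for 20-30% of maximal phosphorylation in three min.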

Jak2, sequence (O60674 whole entry, looked up): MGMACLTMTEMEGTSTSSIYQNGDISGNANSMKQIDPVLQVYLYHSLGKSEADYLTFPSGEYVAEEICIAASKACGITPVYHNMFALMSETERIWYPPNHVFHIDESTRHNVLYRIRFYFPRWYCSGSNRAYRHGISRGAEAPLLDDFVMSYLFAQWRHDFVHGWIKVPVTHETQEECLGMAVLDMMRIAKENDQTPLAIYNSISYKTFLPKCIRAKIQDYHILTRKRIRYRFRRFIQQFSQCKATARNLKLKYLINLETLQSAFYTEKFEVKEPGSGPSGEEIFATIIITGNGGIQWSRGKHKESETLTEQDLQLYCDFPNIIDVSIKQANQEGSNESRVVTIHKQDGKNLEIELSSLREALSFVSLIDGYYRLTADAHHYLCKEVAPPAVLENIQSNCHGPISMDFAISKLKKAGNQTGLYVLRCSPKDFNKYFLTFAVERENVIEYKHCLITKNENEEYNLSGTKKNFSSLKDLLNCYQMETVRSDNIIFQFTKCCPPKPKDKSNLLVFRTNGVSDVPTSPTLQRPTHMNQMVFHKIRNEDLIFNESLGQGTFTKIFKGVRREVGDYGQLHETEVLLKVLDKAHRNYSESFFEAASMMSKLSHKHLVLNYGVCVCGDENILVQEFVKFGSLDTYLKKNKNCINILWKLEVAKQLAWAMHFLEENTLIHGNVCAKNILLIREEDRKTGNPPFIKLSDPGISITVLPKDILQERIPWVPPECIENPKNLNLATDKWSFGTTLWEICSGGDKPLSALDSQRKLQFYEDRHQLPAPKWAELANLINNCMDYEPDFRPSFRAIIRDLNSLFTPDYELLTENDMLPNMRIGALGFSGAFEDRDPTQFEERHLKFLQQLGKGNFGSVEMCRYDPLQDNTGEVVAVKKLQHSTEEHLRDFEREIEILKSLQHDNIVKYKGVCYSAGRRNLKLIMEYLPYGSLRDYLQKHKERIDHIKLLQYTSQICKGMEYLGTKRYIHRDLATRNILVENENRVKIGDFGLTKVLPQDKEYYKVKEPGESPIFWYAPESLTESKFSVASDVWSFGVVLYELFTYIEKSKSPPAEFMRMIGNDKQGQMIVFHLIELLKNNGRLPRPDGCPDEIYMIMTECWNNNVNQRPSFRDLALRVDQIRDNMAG

| Sequence | phosphorylation enrichment |
| --- | --- |
| SFHSSYSEIKD [DCLRE1C_Y322] | 0.559 |
| AVPSLYASGRT [ACTA1_Y145_L142P] | 0.523 |
| MSNFACVKREV [SCN1A_Y1694_Y1694C] | 0.674 |
| EHTTLYSDNST [KANSL1_Y223_N225D] | 0.654 |
| ESDFPYSSSFE [SRPK2_Y427_T426P_YF] | 0.942 |
| NLDRFYQQVTK [SEC16A_Y1041] | 0.639 |
| AIGFEYSEINI [SIGLEC12_Y588_YF] | 1.22 |
| YVFSFYHAFSG [ACTN4_Y265_S262F] | 1.44 |
| VKMLLYTEVTR [GDI1_Y93] | 1.23 |
| GHEEFYSTHPH [LRRK2_Y1402_R1398H] | 0.59 |
| SEPDLYYDPRG [PKP1_Y160_C161Y] | 3.35 |
| IRGNMYYENSY [EGFR_Y112] | 0.55 |
| YGGLRYGYGVL [KRTAP20-2_Y13] | 0.658 |
| RPQDGYRIVQH [PTPRT_Y1329] | 0.534 |
| LFDPDYMKVIL [CYP4A22_Y104_YF] | 1.23 |
| CTTIHYHFMCN [TP53_Y234_N235H_YF] | 0.902 |
| KVDKEYEVRVR [GHR_Y226] | 0.587 |
| LYSNAYLNDLA [ALDH1A1_Y119] | 0.667 |
| LPKEQYLYTKE [AFG3L2_Y614] | 1.41 |
| FRGFSYDDIPD [TMEM230_Y112_YF] | 1.39 |
| HLTLVYGGIFL [FBP1_Y259_R255L] | 1.96 |
| LPPGEYVVVPS [CAPN1_Y494] | 1.32 |
| FISLIYTNFEA [GSTP1_Y109_YF] | 1.3 |
| MSRDVYSTDCF [NTRK2_Y702_Y706C_YF] | 0.855 |
| DEIPLYLKGGV [COX7A2_Y44] | 0.854 |
| DISEPYKVYRI [IRF8_Y107] | 0.78 |
| KILTHYKRPHT [KMT2D_Y5349] | 0.439 |
| RAIDMYLMGCF [GABRB2_Y308_K303R] | 1.83 |

System: c-Abl (mouse)
Assay: as above

| Sequence | phosphorylation enrichment |
| --- | --- |
| SFHSSYSEIKD [DCLRE1C_Y322] | 0.448 |
| AVPSLYASGRT [ACTA1_Y145_L142P] | 0.538 |
| MSNFACVKREV [SCN1A_Y1694_Y1694C] | 0.506 |
| EHTTLYSDNST [KANSL1_Y223_N225D] | 0.512 |
| ESDFPYSSSFE [SRPK2_Y427_T426P_YF] | 0.642 |
| NLDRFYQQVTK [SEC16A_Y1041] | 0.587 |
| AIGFEYSEINI [SIGLEC12_Y588_YF] | 0.689 |
| YVFSFYHAFSG [ACTN4_Y265_S262F] | 1.1 |
| VKMLLYTEVTR [GDI1_Y93] | 0.83 |
| GHEEFYSTHPH [LRRK2_Y1402_R1398H] | 0.504 |
| SEPDLYYDPRG [PKP1_Y160_C161Y] | 3.09 |
| IRGNMYYENSY [EGFR_Y112] | 0.449 |
| YGGLRYGYGVL [KRTAP20-2_Y13] | 0.536 |
| RPQDGYRIVQH [PTPRT_Y1329] | 0.74 |
| LFDPDYMKVIL [CYP4A22_Y104_YF] | 0.958 |
| CTTIHYHFMCN [TP53_Y234_N235H_YF] | 0.785 |
| KVDKEYEVRVR [GHR_Y226] | 0.579 |
| LYSNAYLNDLA [ALDH1A1_Y119] | 0.396 |
| LPKEQYLYTKE [AFG3L2_Y614] | 1.48 |
| FRGFSYDDIPD [TMEM230_Y112_YF] | 0.895 |
| HLTLVYGGIFL [FBP1_Y259_R255L] | 1.4 |
| LPPGEYVVVPS [CAPN1_Y494] | 1.31 |
| FISLIYTNFEA [GSTP1_Y109_YF] | 2.21 |
| MSRDVYSTDCF [NTRK2_Y702_Y706C_YF] | 0.874 |
| DEIPLYLKGGV [COX7A2_Y44] | 0.593 |
| DISEPYKVYRI [IRF8_Y107] | 0.62 |
| KILTHYKRPHT [KMT2D_Y5349] | 0.579 |
| RAIDMYLMGCF [GABRB2_Y308_K303R] | 1.58 |

Target: Hck (UniProt P08631)
Sequence (P08631 whole entry, looked up): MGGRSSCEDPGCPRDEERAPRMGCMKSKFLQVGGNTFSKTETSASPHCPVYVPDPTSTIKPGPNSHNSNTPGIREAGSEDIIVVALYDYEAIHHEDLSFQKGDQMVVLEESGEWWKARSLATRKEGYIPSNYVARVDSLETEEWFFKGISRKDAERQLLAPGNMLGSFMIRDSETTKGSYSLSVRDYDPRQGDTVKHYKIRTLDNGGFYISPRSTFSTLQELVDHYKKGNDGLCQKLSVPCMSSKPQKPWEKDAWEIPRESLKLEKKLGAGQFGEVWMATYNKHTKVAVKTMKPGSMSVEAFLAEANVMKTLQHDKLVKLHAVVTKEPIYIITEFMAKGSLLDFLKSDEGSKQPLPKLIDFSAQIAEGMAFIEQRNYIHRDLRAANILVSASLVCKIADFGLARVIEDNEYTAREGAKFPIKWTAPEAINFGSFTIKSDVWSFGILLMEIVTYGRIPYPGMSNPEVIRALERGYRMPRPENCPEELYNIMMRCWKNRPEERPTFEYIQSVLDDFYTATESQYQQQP
Assay: as above

| Sequence | phosphorylation enrichment |
| --- | --- |
| SFHSSYSEIKD [DCLRE1C_Y322] | 0.51 |
| AVPSLYASGRT [ACTA1_Y145_L142P] | 1.74 |
| MSNFACVKREV [SCN1A_Y1694_Y1694C] | 0.51 |
| EHTTLYSDNST [KANSL1_Y223_N225D] | 0.561 |
| ESDFPYSSSFE [SRPK2_Y427_T426P_YF] | 0.47 |
| NLDRFYQQVTK [SEC16A_Y1041] | 0.599 |
| AIGFEYSEINI [SIGLEC12_Y588_YF] | 1.14 |
| YVFSFYHAFSG [ACTN4_Y265_S262F] | 0.835 |
| VKMLLYTEVTR [GDI1_Y93] | 1.24 |
| GHEEFYSTHPH [LRRK2_Y1402_R1398H] | 1.15 |
| SEPDLYYDPRG [PKP1_Y160_C161Y] | 8.75 |
| IRGNMYYENSY [EGFR_Y112] | 0.603 |
| YGGLRYGYGVL [KRTAP20-2_Y13] | 1.42 |
| RPQDGYRIVQH [PTPRT_Y1329] | 0.586 |
| LFDPDYMKVIL [CYP4A22_Y104_YF] | 0.759 |
| CTTIHYHFMCN [TP53_Y234_N235H_YF] | 0.48 |
| KVDKEYEVRVR [GHR_Y226] | 0.488 |
| LYSNAYLNDLA [ALDH1A1_Y119] | 1.45 |
| LPKEQYLYTKE [AFG3L2_Y614] | 0.767 |
| FRGFSYDDIPD [TMEM230_Y112_YF] | 0.609 |
| HLTLVYGGIFL [FBP1_Y259_R255L] | 2.09 |
| LPPGEYVVVPS [CAPN1_Y494] | 0.67 |
| FISLIYTNFEA [GSTP1_Y109_YF] | 2.56 |
| MSRDVYSTDCF [NTRK2_Y702_Y706C_YF] | 1.14 |
| DEIPLYLKGGV [COX7A2_Y44] | 0.522 |
| DISEPYKVYRI [IRF8_Y107] | 1.34 |
| KILTHYKRPHT [KMT2D_Y5349] | 0.349 |
| RAIDMYLMGCF [GABRB2_Y308_K303R] | 0.888 |

Target: FGFR3 (UniProt P22607)
Sequence (P22607 whole entry, looked up): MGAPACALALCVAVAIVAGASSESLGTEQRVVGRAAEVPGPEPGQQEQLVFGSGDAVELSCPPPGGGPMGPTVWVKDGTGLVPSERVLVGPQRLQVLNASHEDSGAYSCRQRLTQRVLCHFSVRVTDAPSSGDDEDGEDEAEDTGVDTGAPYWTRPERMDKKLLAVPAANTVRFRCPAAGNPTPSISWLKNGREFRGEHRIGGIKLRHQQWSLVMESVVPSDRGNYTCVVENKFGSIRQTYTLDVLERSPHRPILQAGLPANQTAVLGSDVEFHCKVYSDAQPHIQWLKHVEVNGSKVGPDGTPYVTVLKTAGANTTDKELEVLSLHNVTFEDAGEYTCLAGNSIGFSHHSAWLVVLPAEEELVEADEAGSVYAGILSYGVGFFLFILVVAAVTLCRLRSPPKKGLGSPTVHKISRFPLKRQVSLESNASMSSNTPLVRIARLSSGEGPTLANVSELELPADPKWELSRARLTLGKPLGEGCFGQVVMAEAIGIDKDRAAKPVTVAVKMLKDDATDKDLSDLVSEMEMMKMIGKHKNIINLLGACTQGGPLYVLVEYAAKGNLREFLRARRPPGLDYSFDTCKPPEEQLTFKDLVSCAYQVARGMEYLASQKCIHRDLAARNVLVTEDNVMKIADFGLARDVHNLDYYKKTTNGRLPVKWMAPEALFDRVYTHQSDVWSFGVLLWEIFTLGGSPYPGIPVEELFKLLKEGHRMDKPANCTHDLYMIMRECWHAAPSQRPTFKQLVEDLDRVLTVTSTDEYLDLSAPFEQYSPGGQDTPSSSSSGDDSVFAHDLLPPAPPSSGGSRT
Assay: as above

| Sequence | phosphorylation enrichment |
| --- | --- |
| SFHSSYSEIKD [DCLRE1C_Y322] | 0.681 |
| AVPSLYASGRT [ACTA1_Y145_L142P] | 0.434 |
| MSNFACVKREV [SCN1A_Y1694_Y1694C] | 0.592 |
| EHTTLYSDNST [KANSL1_Y223_N225D] | 0.591 |
| ESDFPYSSSFE [SRPK2_Y427_T426P_YF] | 0.692 |
| NLDRFYQQVTK [SEC16A_Y1041] | 0.574 |
| AIGFEYSEINI [SIGLEC12_Y588_YF] | 1.69 |
| YVFSFYHAFSG [ACTN4_Y265_S262F] | 1.13 |
| VKMLLYTEVTR [GDI1_Y93] | 0.883 |
| GHEEFYSTHPH [LRRK2_Y1402_R1398H] | 0.549 |
| SEPDLYYDPRG [PKP1_Y160_C161Y] | 8.64 |
| IRGNMYYENSY [EGFR_Y112] | 0.665 |
| YGGLRYGYGVL [KRTAP20-2_Y13] | 0.518 |
| RPQDGYRIVQH [PTPRT_Y1329] | 0.625 |
| LFDPDYMKVIL [CYP4A22_Y104_YF] | 1.44 |
| CTTIHYHFMCN [TP53_Y234_N235H_YF] | 0.729 |
| KVDKEYEVRVR [GHR_Y226] | 0.473 |
| LYSNAYLNDLA [ALDH1A1_Y119] | 0.776 |
| LPKEQYLYTKE [AFG3L2_Y614] | 0.998 |
| FRGFSYDDIPD [TMEM230_Y112_YF] | 0.737 |
| HLTLVYGGIFL [FBP1_Y259_R255L] | 1.15 |
| LPPGEYVVVPS [CAPN1_Y494] | 1.93 |
| FISLIYTNFEA [GSTP1_Y109_YF] | 1.12 |
| MSRDVYSTDCF [NTRK2_Y702_Y706C_YF] | 0.803 |
| DEIPLYLKGGV [COX7A2_Y44] | 0.656 |
| DISEPYKVYRI [IRF8_Y107] | 0.549 |
| KILTHYKRPHT [KMT2D_Y5349] | 0.515 |
| RAIDMYLMGCF [GABRB2_Y308_K303R] | 1.19 |
